Results reported in patent US20240100176A1 (Eli Lilly, published 2024).
Where a chain is given by its changes, count along the chain named. One block for each binder: values may come before it.

Experiments:
[1] = target: T1, human IL-4Rα on cells (human PBMC B cells and CD4+ T cells, Daudi cells, HEK-Blue IL-4/IL-13 cells, myeloid … (human, UniProt P24394 26-825)); assay: cell-based or functional assay
T1 sequence: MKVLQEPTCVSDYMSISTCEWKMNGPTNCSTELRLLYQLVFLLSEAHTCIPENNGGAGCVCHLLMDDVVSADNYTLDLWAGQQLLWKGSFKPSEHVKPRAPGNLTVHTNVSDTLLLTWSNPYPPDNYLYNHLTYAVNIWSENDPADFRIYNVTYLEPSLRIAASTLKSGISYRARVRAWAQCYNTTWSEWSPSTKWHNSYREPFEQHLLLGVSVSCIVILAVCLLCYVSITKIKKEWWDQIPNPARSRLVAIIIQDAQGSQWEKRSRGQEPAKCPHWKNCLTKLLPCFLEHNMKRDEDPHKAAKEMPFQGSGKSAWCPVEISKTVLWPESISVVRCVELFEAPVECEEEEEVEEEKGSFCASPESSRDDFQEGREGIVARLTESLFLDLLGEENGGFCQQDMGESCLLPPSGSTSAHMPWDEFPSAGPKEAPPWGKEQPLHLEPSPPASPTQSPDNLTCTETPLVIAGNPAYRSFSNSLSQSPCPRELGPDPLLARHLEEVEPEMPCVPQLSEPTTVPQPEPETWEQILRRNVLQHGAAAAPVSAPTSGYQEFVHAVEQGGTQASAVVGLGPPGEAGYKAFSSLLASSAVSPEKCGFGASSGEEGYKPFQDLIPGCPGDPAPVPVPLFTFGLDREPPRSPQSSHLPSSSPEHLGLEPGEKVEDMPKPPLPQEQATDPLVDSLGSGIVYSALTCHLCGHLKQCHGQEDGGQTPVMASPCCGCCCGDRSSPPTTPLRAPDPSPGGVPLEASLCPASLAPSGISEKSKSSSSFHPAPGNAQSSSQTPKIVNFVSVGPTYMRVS

[2] = target: T2, hexahistidine tagged human IL-4Rα ECD containing a C182L mutation (human, UniProt P24394 26-232); assay: X-ray co-crystal structure
T2 construct: Stated for the Ab9 Fab crystal; also called IL-4Rα ECD (crystallisation construct); not shown: hexahistidine tag

[3] = target: T3, hexahistidine-tagged cynomolgus monkey IL-4Rα extracellular domain (cynomolgus monkey, UniProt P24394 26-231 (human entry)); assay: competition MSD ELISA (solution equilibrium, 37 °C), apparent KD, single experiment
T3 construct: also called cynomolgus monkey IL-4Rα ECD; not shown: hexahistidine tag
T3 chain: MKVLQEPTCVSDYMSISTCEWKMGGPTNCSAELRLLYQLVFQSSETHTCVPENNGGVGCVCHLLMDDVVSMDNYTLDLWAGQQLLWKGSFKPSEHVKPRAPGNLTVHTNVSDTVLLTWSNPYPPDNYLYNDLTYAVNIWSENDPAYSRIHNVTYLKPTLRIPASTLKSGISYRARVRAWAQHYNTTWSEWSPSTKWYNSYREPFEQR
Experimental: (§1) Example 3a. […] A 96-well multi-array plate (Meso Scale Diagnostics, Cat. #L15XA-3) was coated at 4° C. overnight with 0.5 μg/mL hexahistidine-tagged human or cynomolgus monkey IL-4Rα ECD in phosphate buffered saline (PBS). Following coating, plates were washed 10 times with 200 μL PBST (PBS with 0.05% Tween® 20) and blocked with 300 μL/well of PBS casein blocking buffer (Pierce, Cat. #37528) at 37° C. for 1 hour. Plates were then washed 10 times as above, and 50 μL of the preincubated antibody:IL-4Rα dilution series was transferred to the wells and incubated at 37° C. with 300 rpm shaking for […]. Plates were washed 10 times with PBST, 50 μL of 1 μg/mL anti-human antibody sulfo-tag 20 (Meso Scale Diagnostics, Cat. #R32AJ-1) was added to the plates for the assay of Table 7a, and anti-Human NHP Kappa Light chain SULFO-TAG 20 (Meso Scale Diagnostics, Cat #D20TF-6) was added to the plates for the assay of Table 7b, and plates were incubated at 37° C. with 300 rpm shaking for 30 minutes. Plates were washed 10 times with PBST, 150 μL/well of 1× Read Buffer T was added to the wells and analyzed on a SECTOR® Imager 6000 (Meso Scale Diagnostics) 15 min after buffer addition. The apparent KD is determined by fitting a sigmoidal curve to the electrochemiluminescence (ECL) response vs. log (soluble IL-4Rα concentration) using GraphPad Prism 9. Data is graphed with normalized ECL values.

[4] = target: T4, hexahistidine-tagged human IL-4Rα extracellular domain (human, UniProt P24394 26-232); assay: as above
T4 construct: In the MSD assay the plate coat is the His-tagged ECD; also called human IL-4Rα ECD; Wild type receptor; not shown: hexahistidine tag
T4 sequence: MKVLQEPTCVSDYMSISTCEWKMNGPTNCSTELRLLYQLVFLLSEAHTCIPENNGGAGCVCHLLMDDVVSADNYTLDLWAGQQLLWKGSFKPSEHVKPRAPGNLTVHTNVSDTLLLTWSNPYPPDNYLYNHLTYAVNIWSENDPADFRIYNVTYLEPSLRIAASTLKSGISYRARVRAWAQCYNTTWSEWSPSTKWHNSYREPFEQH
Experimental: as §1

[5] = target: T1, human IL-4Rα on cells (human PBMC B …); assay: flow cytometry on human PBMCs, B cells, Alexa Fluor 647 labelled antibody
Experimental: Example 3b. Binding to B cells and T cells: Binding of the exemplified anti-human IL-4Rα antibodies to B cells and T cells was tested in a Fluorescence Activated Cell Sorting (FACS) assay. […] Freshly isolated cells PBMCs were resuspended at 2×10⁶ cells/mL and allowed to rest for 15 minutes at room temperature, then plated at 100 μL/well into a round bottom 96-well plate (COSTAR®) and washed with FACS buffer (PBS containing 2% fetal bovine serum from Corning®). Exemplified anti-human IL-4Rα antibodies and the respective control IgG antibodies conjugated to Alexa Fluor® 647 according to manufacturer's protocol (Thermo Fisher Scientific) were added to the wells at 66.67 nM and diluted 4-fold in duplicate. Equivalent volume of 2× antibody cocktail containing: Human TruStain FcX™. FITC anti-human CD3 Antibody, Alexa Fluor® 700 anti-human CD4 Antibody (all from Biolegend®) and CD20 Monoclonal Antibody (2H7), PerCP-Cyanine5.5 (Thermo Fisher Scientific) was then added to the wells. Cells were incubated at 4° C. for 30 minutes, washed twice with FACS buffer and resuspended in a final volume of 100 μL FACS buffer. Viability dye, Sytox™ blue (Thermo Fisher Scientific), was added and the samples were analyzed via a flow cytometer (LSRFortessa™ X-20; BD BIOSCIENCES). Data analysis was performed using FlowJo software and statistical analysis was performed using GraphPad Prism 9. […]

IL-4 IC50 (nM): inhibition of IL-4 induced SEAP activity in HEK-Blue IL-4R and IL-13R expressing cells [1]: 0.03 nM
IL-13 IC50 (nM): inhibition of IL-13 induced SEAP activity in HEK-Blue IL-4R and IL-13R expressing cells [1]: 0.24 nM
B1: anti-human IL-4Rα antibody Ab9 (antibody, human IgG4 S228P, kappa, V domains shown)
VH: QVQLVESGGGLVQPGGSLRLSCAASGFTFSHSSMNWVRQAPGKGLEWVSYISRATGAVYYADSVKGRFTISRDNAKNSLYLQMNSLRDEDTAVYYCAREPVFDYWGQGTLVTVSS
VL: DIQMTQSPSAMSASVGDRVTITCRASQGISNYLAWFQQKPGKVPTRLIYAASSLQSGVPSRFSGSGSGTEFTLTISSLQPEDFATYYCLQWSSYPRTFGQGTKVEIKR

IL-4 IC50 (nM): inhibition of IL-4 induced SEAP activity in HEK-Blue IL-4R and IL-13R expressing cells [1]: 3.45 nM
IL-13 IC50 (nM): inhibition of IL-13 induced SEAP activity in HEK-Blue IL-4R and IL-13R expressing cells [1]: > 35 nM
B2: anti-human IL-4Rα antibody Ab10 (antibody, human IgG4 S228P, kappa, F234A L235A, V domains shown)
VH: B1 VH with H31I, V58I, D73N
VL: B1 VL with W91H, S92N

binding result [2]: binds
B3: Ab9 Fab (hexahistidine tagged IgG1 heavy chain truncated after CH1, Crystal Kappa light chain) (Fab, V domains shown)
VH: B1 VH
VL: DIQMTQSPSAMSASVGDRVTITCRASQGISNYLAWFQQKPGKVPTRLIYAASSLQSGVPSRFSGSGSGTEFTLTISSLQPEDFATYYCLQWSSYPRTFGQGTKVEIK
notes: Construct for co-crystallisation; also called Fab portion of Ab9; Ab9 variant

binding result [2]: binds
B4: Ab1 Fab (Crystal Kappa design) (Fab, V domains shown)
VH: B1 VH with A23V
VL: B3 VL with G28D
notes: Construct for co-crystallisation; also called Fab of the Ab1; anti-human IL-4Rα Ab1 Fab

Kd [3]: 0.0315 nM
Kd [4]: 0.0246 nM
B5: anti-human IL-4Rα antibody Ab4 (antibody, human IgG4 S228P, kappa)
heavy: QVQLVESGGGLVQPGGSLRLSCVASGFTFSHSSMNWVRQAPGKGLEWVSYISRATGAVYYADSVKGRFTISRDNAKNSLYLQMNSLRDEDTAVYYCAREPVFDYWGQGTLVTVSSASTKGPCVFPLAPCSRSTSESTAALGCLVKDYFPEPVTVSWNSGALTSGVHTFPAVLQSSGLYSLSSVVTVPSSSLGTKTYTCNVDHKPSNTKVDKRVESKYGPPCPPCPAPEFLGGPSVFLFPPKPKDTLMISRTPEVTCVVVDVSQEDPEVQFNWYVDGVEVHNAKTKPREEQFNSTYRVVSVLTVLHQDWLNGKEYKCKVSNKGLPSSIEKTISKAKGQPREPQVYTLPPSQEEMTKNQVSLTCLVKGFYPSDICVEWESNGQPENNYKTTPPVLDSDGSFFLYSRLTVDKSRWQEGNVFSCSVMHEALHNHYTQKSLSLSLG
light: DIQMTQSPSAMSASVGDRVTITCRASQDISNYLAWFQQKPGKVPTRLIYAASSLQSGVPSRFSGSGSGTEFTLTISSLQPEDFATYYCLQWSSYPRTFGQGTKVEIKRTVAAPSVFIFPPSDEQLKSGTASVVCLLNNFYPREAKVQWKVDNALQSGNSQESVTEQDSKDSTYSLSSTLTLSKADYEKHKVYACEVTHQGLSSPVTKSFNRGEC

EC50 [5]: 1.07 nM
B6: effector null anti-human IL-4Rα antibody Ab8 (antibody, human IgG1, kappa, L234A L235A)
heavy: QVQLVESGGGLVQPGGSLRLSCVASGFTFSHSSMNWVRQAPGKGLEWVSYISRATGAVYYADSVKGRFTISRDNAKNSLYLQMNSLRDEDTAVYYCAREPVFDYWGQGTLVTVSSASTKGPCVFPLAPSSKSTSGGTAALGCLVKDYFPEPVTVSWNSGALTSGVHTFPAVLQSSGLYSLSSVVTVPSSSLGTQTYICNVNHKPSNTKVDKRVEPKSCDKTHTCPPCPAPEAAGGPSVFLFPPKPKDTLMISRTPEVTCVVVDVSHEDPEVKFNWYVDGVEVHNAKTKPREEQYNSTYRVVSVLTVLHQDWLNGKEYKCKVSNKALAAPIEKTISKAKGQPREPQVYTLPPSREEMTKNQVSLTCLVKGFYPSDICVEWESNGQPENNYKTTPPVLDSDGSFFLYSKLTVDKSRWQQGNVFSCSVMHEALHNHYTQKSLSLSPGK
light: B5 light
notes: Effector null backbone
